In the assay the target is Recombinant M. tuberculosis MDP1 (Mycobacterial DNA-binding protein 1) produced in Mycolicibacterium (Mycobacterium tuberculosis) (UniProt P9WMK7). Put plainly: cross-linking; glutaraldehyde 0.2%, room temperature, 30 min; 4 µM or 8 µM protein in 150-1500 mM NaCl; SDS-PAGE on a 4-15% gradient gel.

Values joined by “and” are separate entries in the source; they are usually repeats but may differ in a detail not shown here. Equal values may be shown once.

As to “Recombinant M. tuberculosis MDP1 (Mycobacterial DNA-binding protein 1) produced in Mycolicibacterium (from UniProt P9WMK7 3-216) (natural protein)”, the stoichiometry N was 2 and 3.

A word on the stoichiometry N: it is a count of units in the complex or per binding partner.

The values above are taken from article PMC11033290.
